Experimental findings from article PMC5300761, “Characterizing the Coding Region Determinant-Binding Protein (CRD-BP)-Microphthalmia-associated Transcription Factor (MITF) mRNA interaction” are described below.

In series [1] the target is T1, CRD-BP WT (mouse, UniProt O88477 1-577). As to the kind of experiment: fluorescence polarization; 10 nM oligo, 0-1000 nM protein; EMSA as in refs 21,22 (buffer not given; competitor preincubation 35 C); FP: binding buffer stock 10 mM Tris-HCl pH 7.4, 2.5 mM EDTA, 5% glycerol, 0.002% Triton X-100, 37 C 30 min. The following applies: protein: recombinant; (pET28b(+), Ni-NTA); label: 3' 6-FAM.

In series [2] the target is T1, CRD-BP WT. As to the kind of experiment: fluorescence polarization; 10 nM RNA, 0-1000 nM protein; EMSA as in refs 21,22 (buffer not given; competitor preincubation 35 C); FP: binding buffer stock 10 mM Tris-HCl pH 7.4, 2.5 mM EDTA, 5% glycerol, 0.002% Triton X-100, 37 C 30 min. Conditions: protein: recombinant; (pET28b(+), Ni-NTA); label: 3' 6-FAM. For orientation: Fluorescence polarisation rises when a labelled molecule tumbles more slowly, as on binding a larger partner.

T1 sequence (O88477 whole entry): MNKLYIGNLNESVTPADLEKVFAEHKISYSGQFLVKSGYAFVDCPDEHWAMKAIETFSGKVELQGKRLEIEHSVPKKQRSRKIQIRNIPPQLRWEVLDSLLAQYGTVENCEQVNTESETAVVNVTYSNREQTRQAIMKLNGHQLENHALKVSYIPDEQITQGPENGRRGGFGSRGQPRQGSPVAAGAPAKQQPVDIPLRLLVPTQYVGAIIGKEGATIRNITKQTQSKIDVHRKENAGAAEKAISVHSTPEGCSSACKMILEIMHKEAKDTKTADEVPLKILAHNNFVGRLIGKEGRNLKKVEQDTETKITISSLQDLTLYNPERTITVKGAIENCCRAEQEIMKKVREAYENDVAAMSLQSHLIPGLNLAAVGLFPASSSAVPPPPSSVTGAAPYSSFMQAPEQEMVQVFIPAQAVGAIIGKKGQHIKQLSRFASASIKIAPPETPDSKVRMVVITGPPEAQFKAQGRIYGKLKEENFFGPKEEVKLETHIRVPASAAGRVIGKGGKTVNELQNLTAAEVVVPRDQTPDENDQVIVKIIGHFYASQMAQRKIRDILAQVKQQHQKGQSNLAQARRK

B1: MHO-1_FL (ssDNA)
DNA: TAAAAATCTCAAATCAAGTTTC
For B1, the binding result in the series with CRD-BP WT [1] is “no binding”.

B2: MHO-7_FL (ssDNA)
DNA: ATTCAGTTCACAGATACTGCAC
As to B2, the binding result with CRD-BP WT [1] is on record as “no binding”.

B3: FL-CD44 RNA (ssRNA)
RNA: AAAUUAGGGCCCAAUUAAUAAUCAGCAAGAAUUUGAUCG
Turning to B3, the binding result with CRD-BP WT [2] was “binds”.
